According to the DeepSol protein solubility set:

Test: soluble on expression in E. coli; label from the status in PepcDB or PDB records
In the case of “TADVRTAENMGVRAYTVATAITFQGSGSYRGERWVDSADIIRQIESLSAEMEPAVAKIGLIRDSDTLSLVVDCLKKVFPSIRIVWDPVLRASADSSAGQADRFNLEDITALSRIDFITPNLPEARHLLGCEPDDETLLDFYRRSGVGLVLKGGHAGESVVTDRIVYDGRCEALRLLRGGTGKHGTGCAHSTAFAAALALEQEPFTAAGMAQLYVSRLRERASGLLAMHKDLPVDPVVR”, the “soluble on expression in E. coli” value is reported as “not soluble”.
In the case of “QTKIYESYKLPDYLKDKIKNNNHAEMDENDLDNKIFYKPNVAAHSQFIDYKYNGNHSVEIKFETDAIEVYEIRPVSIATITHVTIPNDCASNNSNSNECVLIIHVWNNSKFVGSNFSCSIACTNKETDQLASHINPIAPVRAFIGPNKNYAFYFIIKFLINKEITTLCKAIVKDSNGKECSIEEFELQSKESVHIVESEVDETTDQVVVEHHTQSPDIKNPDEYVCKCTINLLCYV”, the “soluble on expression in E. coli” value is reported as “soluble”.
In the case of “MGKGLLGKRVAIGGSRKTEEISTIIEKQGGIPVIRPLQGTVYLAEKQVEPDLRTFAEEKADWVIFTTGIGLETLVDMAEKIGLKDEFLQAIRQAKAACRGYKTLSALKKLGITPEASDEDGTTRGLIRSLEPHDFSGKTVMVQLHGEKAPALMAFLEEKGASVLPILPYQHIPPEEETVERLCRELMNDEVDAVCFTTAIQVRSLFDFAKGRGYINEVKKVFEERAIAAAVGKVTAEALREEGITRLLAPEIERMGAMIVELAKYYEEKE”, the “soluble on expression in E. coli” value is reported as “not soluble”.
For “MAKKPTALIILDGFANRESEHGNAVKLANKPNFDRYYNKYPTTQIEASGLDVGLPEGQMGNSEVGHMNIGAGRIVYQSLTRINKSIEDGDFFENDVLNNAIAHVNSHDSALHIFGLLSDGGVHSHYKHLFALLELAKKQGVEKVYVHAFLDGRDVDQKSALKYIEETEAKFNELGIGQFASVSGRYYAMDRDKRWEREEKAYNAIRNFDAPTYATAKEGVEASYNEGLTDEFVVPFIVENQNDGVNDGDAVIFYNFRPDRAAQLSEIFANRAFEGFKVEQVKDLFYATFTKYNDNIDAAIVFEKVDLNNTIGEIAQNNNLTQLRIAETEKYPHVTYFMSGGRNEEFKGERRRLIDSPKVATYDLKPEMSAYEVKDALLEELNKGDLDLIILNFANPDMVGHSGMLEPTIKAIEAVDECLGEVVDKILDMDGYAIITADHGNSDQVLTDDDQPMTTHTTNPVPVIVTKEGVTLRETGRLGDLAPTLLDLLNVEQPEDMTGESLIKH”, the “soluble on expression in E. coli” value was “not soluble”.
In the case of “GPGSMASKKGGKKANGEDLEAAILRWFECEGEPATVQSLTDALGSKFGKQLVQNTLEQCLKEQKLLAKDIKKARFYFLASPAPGSNDEGSDVGSHKIDIVKQLRQLRNGVSMLSSELSVLLQAQTSSKRATTIASLVSECAALRSRLQALHVIAGKESSCVSDDVSLLIHRYKRARELWRDRKRITVCVIDAVLGDSCGPQELEDIFGLSTDEQMNLCLSGTALTLPATVSS”, the “soluble on expression in E. coli” value is reported as “not soluble”.
In the case of “MRKTRNQAGARQALKQLGMRNTSRSAAPRRGCVLSCFFEHLSLYDHSFFPHHSSQMFLFLKDSRFRKKMASQQDASPPTGYNMGHRHSLTIETNPLHLLPSNMRRFSQADTARHPAAPLLSKLAARQQIPEAVAEKKDDEKPENK”, the “soluble on expression in E. coli” value is reported as “not soluble”.
With “MLTEQQFRDEIRGFVDKMNENNFHWQLKEIGKYARETHLKTLSDGRVITSETHILYNSTYQVPTIWFNFFENNGSPLPFRTVIRDVLNISETEESEASIRSRISHYEHPFMGVLYYNIHPCNTSNIMKELNTDRSYLMSWFSVYGQQIGLKLPDRVL” the “soluble on expression in E. coli” value was “not soluble”.
With “MQKTFEEYERFFTTEKDMIPATIFTAPKKKFLQADSKFYEKRRVWILVISQHLVDNNLRSEDVRRFFHLESPDDDENNVDLGPSERKTATANDFDYLTTIGKGSFGRVYQVRHKETKKIYAMKILSKEHIRKKNEVKHVMAERNVLINNFKHPFLVSLHFSFQNKEKLYFVLDHLNGGELFSHLQREKHFSESRSRFYAAEIACALGYLHEKNIIYRDLKPENLLLDDKGYLVLTDFGLCKEDMQGSKTTSTFCGTPEYLAPEIILKKPYDKTVDWWCLGSVLYEMIFGLPPFYSKDHNEMYDKIINQPLRLKHNISVPCSELITGLLQKDRSKRLGHRNDFRDIRDHPFFLPVDWDKLLNRELKAPFIPKVKNAMDTSNISKEFVEIQIDPSSLAPQQLAVTHRDHDFENFTFVDTNRVLV” the “soluble on expression in E. coli” value was “not soluble”.
For “MPSYKLTYFNARGYGEAARILFHLADVPFEDFRMTHGDGTWEKLKEKTPLGQVPVLSVDGFEIPQSAAIIRYLANKFGYAGKTPEEQAWADAIVDQFKDFMGSFREVGKAHAAGKPAEEIAKIMQSDVVPARDAFFVIINGILEKSKSGFLVGDGLTFADIVVVECITTLDKNQLFTPAGEPKLVALREKVYAIPAIKKWVEIRPDTQY”, the “soluble on expression in E. coli” value was “not soluble”.
In the case of “MGSDKIHHHHHHMDYLDIGQAADNKYYSSKRTLPLAIMKENAKEYQPLKINTIKTCSCKENNLNCLTAKEWIKRQIGVWEFYYEKRDIRDKTVHPATFPISLAKQVIELFSHEGELVVDPFVGSGTTLVAARDSNRNAVGFDLQEKYIKLCAERLSTQRIVGNAQQVAIEEDARNISNYFNEESISLIFTSPPYANLLNRERKNKSRRNRKNNQLGKVEQYSQDPRDLGTLDVESYTKEMGDIFEKVKPALRTKGHCVINVPDMWWENKRIAIHVYLINEMTKRGYELRNIIIWDKRNLVNQIGIFGWPSNYITMGVTFEYLLDFWKP”, the “soluble on expression in E. coli” value is reported as “not soluble”.
In the case of “MSLPPKFWIIIIVKKIDQQSLENAYRLFESGDIHQIEIGSTKGLQQIHHYLFNGLYEFAGKIREQNISKGHFRFANALYLKEALGKIEQMPEDTFENIINKYVEMNIAHPFLEGNGRSTRIWLDLVLKKHLGKVVNWQNVDKTQYLQAMERSPINDLEIRFLLQANLTDDVNNREIIFKGIEQSYYYEGYEKEEGGSHHHHHH”, the “soluble on expression in E. coli” value is reported as “soluble”.
For “TVIYDKNEKQAGTLYGQKGTYVELDAISDDLENAVISTEDRSFYKNSGINYKRMLLAIVTLGYSGGGSTITQQLAKNAFLTQEQTVKRKAREFFLALELTKKYSKKEILTMYLNNAYFGNGVWGVEDASQKYFGTSASRLTLDEAATLAGMLKGPGIYNPLYSI”, the “soluble on expression in E. coli” value was “not soluble”.
In the case of “MNAIILAAGFGSRLMPLTKDQPKCMVEYKNKKIIDYEIEALKSAGINEIAVVGGYLNDVLKNYLNKYDIEHFFINSKYDKTNMVHTFFCAKDFMLKCIEEKQDLIISYADIVYFQDCVQKLINAKEELAIVVDKSWCKLWSKRFANPLEDAETLKMTNGYIIELGKKANAYDEIEAQYIGLFKFSYQFLSEVIAFYEMLDRDILYDNKNFENMYMTSFLQALIEKYNNAKAVEIDGNWCEIDFMSDLEVQIEKLEHHHHHH”, the “soluble on expression in E. coli” value is reported as “not soluble”.
In the case of “MAHHHHHHMSRYVKYFVQAKRLDKRKRKFGQMDFLELSKELSIPFPLRERNQPKHLDLSKYLNIKVGDLVKVLYGPYKDKEGIVLNINTKRNTVIVDGCNMKKSAWNVTKKNAGSIITQEMPIHITNVAILDPISKKATVVKRRYMMHGECVRISKISGCAMPEPVSVQALKEQNNYELFIHKKKTGPPIKDIYAERDSKNFNLLKKIAYEIKRRRFYEMKNFFRDASPGKGSASPGGGSASLGEGSSSLEG”, the “soluble on expression in E. coli” value is reported as “not soluble”.
For “RLVLAGNGMAGIRCIEEVLKLNRHMFEIVIFGSEPHPNYNRILLSSVLQGEASLDDITLNSKDWYDKHGITLYTGETVIQIDTDQQQVITDRKRTLSYDKLIVATGSSPHILPIPGADKKGVYGFRTIEDCQALMNMAQHFQKAAVIGAGLLGLEAAVGLQHLGMDVSVIHHSAGIMQKQLDQTAARLLQTELEQKGLTFLLEKDTVSISGATKADRIHFKDGSSLKADLIVMAAGVKPNIELAVSAGIKVNRGIIVNDFMQTSEPNIYAVGECAEHNGTVYGLVAPLYEQGKALASHICGVPCEEYQGSAPSAALKIAGIDVWSAGKIQEDERTTSIKIYDEQAGVYKKALFVDDKLRVILFGDTRDKQRLLDSLLKQRDISIAKKQIIEPETSGPLFESMPSSETICQCNTVTKGAIEDAVHTNSLTTVEEVKHCTKATGSCGGCKPLVEDLLRYMTNSEYTKPASTPSFCSCTDFTEDDIIAELQRRPFTNPAEVMNQLDWKTKNGCSTCVPAIQYYLEMLYPGFVQPEPATEETCILIPQMYGGRTNAEQLRTIANIIEAYSIPDVSITHGQRLKLSGIKPADLPNMKKDLKMPVYTNEHRHALQSIKACTCGQNRSIQQLAAQIERQLEMLPLPAPISISLSCETDCTEAALQDVGAIRTQAGWDIHIGGVRGTHARSGALFCVTENEDSTAGMIKGLIQYYRETDHYLEGVHQWIDRLGIVHIREVLFEEDLRAQLLESLQTDLSLIQNPTVETGAYKK”, the “soluble on expression in E. coli” value was “not soluble”.
For “MSDEEIDISTALNNKTTPKKKSLKRNSNSQEGYESPEEREIVYPSVFGAIGTPMAKSDNAKEWDEWKEKERKKDKAEWKRYLRSKWDMTQGHLPLVSDSEFLKGRKEHKEYNSKARMDILDGLDEVNEGFFNCGKGAAMNIRYNDKNVSKKGAKKFVATVETAMKKAGNPTMEQMMTDDLDEDEARAEAEWERQREQRKLASRAYDAAMDEREDDAKYVPWDEYCQEMEELGKELKIGEKHYKKWLEKKMDENKVTHKFNAYQLDLKCLDEDAFSNKKSLKSVVRNVQKFYRKMREPKK”, the “soluble on expression in E. coli” value was “not soluble”.
With “MGELWGNGGGCYSPVPPVMIPFMAYYEKRGDAWRAQIRRKGYPTLSATFDTKAEAQRWAAELEGDMSRARFVDVREAEATSLATALERYESEVTESKKGAKQERVRIKKWMESKFAGKSLASLRSSDMASYRDAEIKAGRSTATVRLDLAVISHLYTVATKDWGIEGLTNPCRALRMPKGSKQRERRPTADELKSLYKAAGEISPELPVIIELAVETAMRRSELVTLRKDQIQGKVAFLEDTKNGERRSVPLSSRARELIEGVPAPIKGGPLFRLKADTVSNYFPLACEKANIQGLRLHDLRHEATSRLFERGFTMMEVASITGHKTLAMLKRYTHLSPQDLAEKLG” the “soluble on expression in E. coli” value was “not soluble”.
With “MKKVSVLIVAKNEANHIQECIESCRFDKEVIVIDDYSTDNTAEIAEGLGAKVFRRHLNGDFGAQKTFAIEQAGGEWVFLIDADERCTPELSDEISKIVQTGDYAAYFVERRNLFPNHPATHGAMRPDSVCRLMPKKDSSVQGKVHETVQTPYPKRRLKHFMYHYTYDNWEQYFNKFNKYTSISAEKYREQGKPVRFVRDIILRPIWGFFKIYILNKGFLDGKMGWIMSVNHSYYTMIKYVKLYYLYKSGGKF” the “soluble on expression in E. coli” value was “not soluble”.
With “MGSDKIHHHHHHADDSVKIGFITDMSGLYADIDGQGGLEAIRMAVADFGGKVNGKPITVVYADHQNKADIAASRAREWFDRDGVDMLIGGTNSATGLSMNTVAGEKKKVYISIGAGADTLTNEQCTPYTVHYAYDTTALAKGTGSAVTKQGGKTWYFLTADYAFGKALEKNTADVVKANGGQVLGAVRHPLSASDFSSFLLQAQASKAQILGLANAGGDTINSIKAAKEFGITKTMKLAALLVFIDDIHSLGLETTQGLVLTDSWYWNKDATTRKWAERYFDKMKKMPSSLQAADYSATMTYLNAVKAVGSTDSDKVMAQLKKTKIDDFYAKGYIRQDGSMIHDMYLMQVKTPAESREPWDYYKITATIPGEQAFTTKAETRCALWK” the “soluble on expression in E. coli” value was “not soluble”.
In the case of “MFSIFKRKTKQVNPFEQGWLTDLIDIHCHLLPAVDDGSKSIEETLSLIDLLEEIGVKQHILTPHIMEEYPSNDAIFLRARFEELLAAITPDKASRLRLAAEYMLDVAFLDRLAEPLLTLGDR”, the “soluble on expression in E. coli” value is reported as “not soluble”.
For “GPGSMGRNKKSKATAHAQACSDGEREEEHGAVPTTTLPARAEGCEEENGASAAAADGAQGTPDHHSGRCSERGRDSDDDAPKTKKEYRGNRLKKLEVQRKKGKGKGANEDDKAEEAAREGDAHEEPLVVTRQRAVEVLYCPICTFPAEMCEFSGIVEKCRPWLLEHAADLADAEERGRKRRILTEKDRLEAMLEGRGVKKALERIVVLEVEKRTGRRMITSVFGMDLFGFNLKDVSRDWRKRFSCGAGVRAAEEGKHQDCIDIQGNVVDQLADMLITKYKIPKESVYLMEGKKKVPYPY”, the “soluble on expression in E. coli” value was “not soluble”.
